Assay results from patent US20210032330A1.

The binders below were run against cynomolgus TIM-3 (cynomolgus) (assay: BLI (OCTET Red96), mAb on anti-mouse Fc biosensor, antigen in solution, 1:1 model).

| Binder | Kd [nM] |
| --- | --- |
| anti-TIM-3 monoclonal antibody 18-N1-A (antibody, V domains shown) VH: QVQLQQPGAELVRPGVSVKLSCKASGYTFTSYWMHWIKQRPEQGLERIGEINPSNGGTNYNEKFKNKATLTVDKSSSTAYMQLSSLTSEDSAVYYCARSYYTYDAIDYWGQGTSVTVSS VL: DIVMSQSPSSLAVSAGEKVTMSCKSSQSLLNSRTRKNYLAWYQQKPGQSPKLLIYWASTRESGVPDRFTGSGSGTDFTLTISSVQAEDLAVYYCKQSYNLYTFGGGTKLEIK | 14 |
| anti-TIM-3 monoclonal antibody 16-K5-A (antibody, V domains shown) VH: QVQLQQSGAELVKPGASVKLSCKASGYTFTSSDINWVRQRPEQGLEWIGWIFPGDGSTKYNEKFKGKATLTTDKSSSTAYMQLSRLTSEDSAVYFCARGLDYWGQGTTLTVSS VL: DIKMTQSPSSMYASLGERVTITCKASQDINSYLGWFQQKPGKSPKTLIYRADRLVDGVPSRFSGSGSGQDYSLTISSLEYEDMGIYYCLQYDEFPLTFGAGTKLELK | 6.4 |
| anti-TIM-3 monoclonal antibody 5-K4-A (antibody, V domains shown) VH: EVQLQQSGPELVKTGASVKISCKASGYSFTAYYIHWVKQSHGKSLEWIGHISCFNGATSYNQKFKGKATFTVDTSSSTAYMQFNSLTSEDSAVYYCARRGDFDRPEFAYWGQGTLVTVSA VL: DIVLTQSPASLAVSLGQRATISCRASESVEYYGTSLMQWYQQKPGQPPKLLIYAASNVESGVPARFSGSGSGTDFSLNIHPVEEDDIAMYFCQQSRKVPWTFGGGTKLEIK | 6.7 |
| anti-TIM-3 monoclonal antibody 10-M21-A (antibody, V domains shown) VH: DVQLQESGPTLVKPSQTLSLTCSVTGDSITSGYWNWIRKFPGNKLEYMGYISYSGSTYYNPSLKSRISIIRDTSKNQYYLQLNSVTTEDTATYYCVSGNHFDYWGQGTTLTVSS VL: DIQMTQSPSSLSASLGGKVTITCKASQDINRYIAWYQHKPGKGPRLLIHYTSTLQPGIPSRFSGSGSGRDYSFSISNLEPEDIATYYCLQYDNLLFTFGSGTKLEIK | 7.5 |
| anti-TIM-3 monoclonal antibody 16-L3-A (antibody, V domains shown) VH: QVQLQQSGPELVKPGASVKMSCKASGYTFTSYYIHWVKQRPGQGLEWIGWIYPGDGSTKYNEKFKGKTTLTADKSSSTAYMLLSSLTSEDSAIYFCATDRYDVAYWGQGTLVTVSA VL: EIVLTQSPALMAASPGEKVTITCSVSSSISSSNLHWYQQKSETSPKPWIYGTSNLASGVPVRFSGSGSGTSYSLTISSMEAEDAATYYCQQWSSYPLTFGAGTKLELK | 6.5 |

These reach a lower Kd. Values come first.

| Kd [nM] | Binder |
| --- | --- |
| 5.2 | anti-TIM-3 monoclonal antibody 6-I13-A (antibody, V domains shown) VH: EVQLQQSGPELEKPGASVKISCKASGYSFTGYNMNWVKQSNGKSLEWIGNIDPYYGVTSYNQKFKGKATLTVDKSSSTAYMQLKSLTSEDSAVYYCASYSLTYDGYYPFAYWGQGTLVTVSA VL: DIVLTQSPASLAVSLGQRATISCRASKSVSTSGYSYMHWYQQKPGQPPKLLIYLASNLESGVPARFSGSGSGTDFTLNIHPVEEEDAATYYCQHSRELPYTFGGGTKLEIK |
| 2.9 | anti-TIM-3 monoclonal antibody 10-O15-A (antibody, V domains shown) VH: QVQLQQSGADLVRPGASVKLSCKALGYTFTDYEMHWVKQTPVHGLEWIGAIHPGSGGTAYNQKFKGKATLTADKSSSTAYMELSSLTSEDSAVYFCSRSYYRYTGYFDVWGAGTTVTVSS VL: DIVLTQSPASLAVSLGQRATISCRASKSVSASGYSYMHWYQQKPGQPPKLLIYLASNLESGVPARFSGSGSGTDFTLNVHPVEEEDAATYYCQHSRELPFTFGSGTKLEIK |
